Data from the supplement of paper PMC10126150.
± gives the standard deviation of the averaged measurements.

Each sequence was assayed on ATP (assay: switch fluorescence ratio, 500 uM ATP over buffer (Cy3 cluster intensity, sum of 5 cycles each) (fold (ratio)); higher = stronger signal-on switching upon ATP binding; sequences stand for … in TCGTCGGCAGCGTCAGATGTGTATAAGAGACAGTTTTTTTTTTTTTTTTTTTTTTTTT…TC). Conditions: aptamer strand: ATP DNA aptamer (quencher-CACCTGGGGGAGTATTGCGGAGGAAGG + anchor), 100 nM annealed; ATP concentration: 500 uM.
In short: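 The fluorescence ratio divides summed target-cycle Cy3 intensity by summed buffer-cycle Cy3 intensity for each cluster and is averaged per switch-domain sequence. Cy3-labelled switching-strand clusters on a modified Illumina MiSeq flow-cell were annealed to 100 nM quencher-labelled ATP aptamer, then imaged in selection buffer and again after 15 min with 500 uM ATP at 22 °C. Five such cycles were run, with NaOH stripping and re-annealing between them, and clusters outside 100-1000 RFU were excluded.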
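Also: ATP exposure 15 min at 22 °C before imaging.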

Sequence | switch fluorescence ratio
GCCCATTTTT | 0.978 ± 0.011
GCCCCGGGGG | 1.1 ± 0.046
GCCCGATCAC | 1.151 ± 0.0086
GCCCGCCACA | 1.06 ± 0.041
GCCCGGGGGG | 1.03 ± 0.0083
GCCCGGTCGG | 0.953 ± 0.017
GCCCGTATGC | 1.07 ± 0.011
GCCCTACAAC | 0.998 ± 0.012
GCCCTGAGCA | 1.01 ± 0.026
GCCCTTGTCA | 1.01 ± 0.019
GCCCTTTCGT | 1.032 ± 0.0021
GCCCTTTTAC | 1.19 ± 0.074
GCCCTTTTTT | 1 ± 0.046
GCCGAGCCGG | 0.972 ± 0.011
GCCGAGCTCT | 0.996 ± 0.024
GCCGATGCTG | 0.978 ± 0.042
GCCGATTACG | 1.02 ± 0.033
GCCGATTATA | 1 ± 0.00097
GCCGCACGGA | 1.13 ± 0.045
GCCGCAGCTA | 3.05 ± 0.15
GCCGCTATTT | 1.43 ± 0.18
GCCGGACAGT | 1 ± 0.017
GCCGGATTCG | 1.02 ± 0.013
GCCGGATTGA | 1.02 ± 0.041
GCCGGCAATT | 1.01 ± 0.015

Sequence | switch fluorescence ratio
GCCGGGACTA | 1.01 ± 0.024
GCCGGGATTG | 0.976 ± 0.029
GCCGGGGGTT | 1.2 ± 0.21
GCCGGGTACG | 0.992 ± 0.029
GCCGGGTTGA | 1.03 ± 0.048
GCCGGTTATC | 1 ± 0.017
GCCGGTTTTG | 1.01 ± 0.017
GCCGTCTTGA | 1.01 ± 0.041
GCCGTGTAGA | 1.05 ± 0.021
GCCTACAACA | 1.02 ± 0.029
GCCTACATTA | 0.997 ± 0.022
GCCTCATAGG | 0.994 ± 0.019
GCCTCGGGGG | 0.953 ± 0.021
GCCTGAAAGG | 0.993 ± 0.022
GCCTGAGCTG | 1.024 ± 0.0094
GCCTGGGGGC | 0.967 ± 0.019
GCCTGGTGTC | 1.27 ± 0.055
GCCTGTATTG | 0.982 ± 0.027
GCCTGTGGGG | 0.977 ± 0.019
GCCTTAGAGT | 1.03 ± 0.051
GCCTTAGCCG | 0.972 ± 0.019
GCCTTAGGTG | 1.4 ± 0.12
GCCTTGAAGT | 1 ± 0.013
GCCTTGATAG | 0.981 ± 0.0086
GCCTTGGTGC | 1.08 ± 0.018

Sequence | switch fluorescence ratio
GCCTTTCAAT | 1.024 ± 0.0015
GCCTTTGGCT | 0.996 ± 0.049
GCCTTTTGCA | 1.01 ± 0.03
GCCTTTTTTA | 0.996 ± 0.016
GCGAAAACAG | 1 ± 0.088
GCGAAAAGGA | 1.02 ± 0.011
GCGAACGGAG | 0.998 ± 0.011
GCGAATATCT | 1.02 ± 0.037
GCGACGGGAG | 1.01 ± 0.013
GCGACTAGGT | 1.03 ± 0.028
GCGAGACTGT | 1.07 ± 0.04
GCGAGATGGG | 0.9735 ± 0.0013
GCGAGCGTCC | 1.025 ± 0.0023
GCGAGGGCAA | 1.72 ± 0.052
GCGAGGGGGT | 0.979 ± 0.054
GCGAGTTGGG | 0.985 ± 0.022
GCGATAAATT | 0.983 ± 0.045
GCGATAATTT | 0.9975 ± 0.0076
GCGATACGCA | 1.07 ± 0.041
GCGATCAGAC | 1.15 ± 0.015
GCGATGGAAT | 1.1282 ± 6e-05
GCGATGGCTG | 0.957 ± 0.015
GCGATTAGTT | 0.9711 ± 0.0012
GCGATTGGCT | 1.06 ± 0.018
GCGATTTAGA | 0.994 ± 0.016

Sequence | switch fluorescence ratio
GCGATTTTTA | 1.09 ± 0.089
GCGCAGGTAA | 1.04 ± 0.013
GCGCAGTGGC | 1.23 ± 0.058
GCGCCAAGGA | 1.08 ± 0.09
GCGCCAGTTT | 0.992 ± 0.02
GCGCCCATCT | 1.02 ± 0.017
GCGCCTTGTG | 0.988 ± 0.018
GCGCGAGGGG | 1.01 ± 0.02
GCGCGATGGA | 1.03 ± 0.019
GCGCGGGGGG | 1.02 ± 0.03
GCGCGTAGGC | 1 ± 0.021
GCGCGTCGCA | 1.02 ± 0.025
GCGCGTGGAG | 1.04 ± 0.03
GCGCTCGAGT | 1.018 ± 0.0074
GCGCTCTTAT | 1.001 ± 0.003
GCGCTGCATT | 1.06 ± 0.037
GCGCTTAAAT | 1.03 ± 0.057
GCGGACCCTC | 1.03 ± 0.05
GCGGACTAGT | 0.9883 ± 0.0052
GCGGAGAGAG | 0.998 ± 0.019
GCGGAGGCGG | 0.976 ± 0.031
GCGGAGGGGC | 1.0106 ± 3e-05
GCGGAGGGTG | 1.028 ± 0.0092
GCGGATGTAG | 1.01 ± 0.03
GCGGATTAGG | 1.03 ± 0.0072
